From the DeepSol protein solubility set

Experiment: soluble on expression in E. coli; label from the status in PepcDB or PDB records
With “MAHHHHHHMADSSCTSAAASVATAAPAFDFKPLQKSNVDLFATAPQVKKLTRREKDKMLRELEVKRAKPRAVDDSSGAAGKGRKGQPRQSDRSAAVAEVVRSATISSSSDDASGIGNKGEKKKSLFETVFDTKEVEKELAAQEDRRSRKRSKKQVLRHALHSNEEEDARTVFVGNLPNTIHKRDVEKIFKSCGSITAVRIRCQALEELDEQHQNMGRAVRVLRGEIKKDAKYSATAYVLFDSAKSIASALEKNGLIFHNRHIVVTTMDVESRAYPPETSIFLGNVAYNTTEEDVWSFFQEHGIADVKRVRLVRDRETGDCKGFGYVEFMHASSVQPAIETRGDKLNGRELRIVHVNKSKEVKVATKSRREKRRSEHAGGRGGAEACKRSRSGGDGDGGSRGSAGYSNFKKPRTDSDLPSWAGLTTNPRRKMPKDLRPLVEGKVEFKPRGPRAPVKRKTRNPEK” the “soluble on expression in E. coli” value was “soluble”.
With “MDQFVNHLSCTALLVGKKASVDGSTMIARNEDASGGINPKRFIVVQPADQPQRYVSTFNGFQLDLPQTPLQYTCTPVADQSHGTWGEAGINSENVAMSATETEFTNTTMLGLDPLEPDGIGEEAMLTVVLPYIHNAREGVERLGELVTKYGTCESNGIAFSDANEIWYFETVGGHHWAAERIPDDRYVLAPNQTGIQEIDFQAPEHYKYSADLKDFAAKYHLNKAKEGFNFRDIFGEDTQADHYYNTPRVWYAQKMLNPEIDQDPESRTMPFSRVPSHLISVEDVAMVLSSHYQATDFDPYGQTGTPETRRRYRPIGMNRNQEMHILQIRPNMPKSHAAIHWLAEGVNIFNSPVPFFANCTTTPENFQYTPIDKSSTDSFYWLNKLIAMVADPLFAEHDWDAEFAVSESRKFGFAAGRAAVAKGDAAFADVKPEDLPAWHDALNAETAATITNDLQYLLHQLVCIRAEKMTPSFEKGGELLEHHHHHH” the “soluble on expression in E. coli” value was “not soluble”.
With “STAKNSPKEFTASESEVCIKTFKEQMRLELELPKLPGNRPTSPKISPRSSPRNSPCFFRKLLVNKSIRQRRRFTVAHTCFDVENGPSPGRSPLDPQAGSSSGLVLHAAFPGHSQRRESFLYRSDSDYDLSPKAMSRNSSLPSEQHGDDLIVTPFAQVLASLRSVRNNFTLLTNLHGAPNKRSPAASQAPVSRVSLQVCDHRRLTKCRESKRC” the “soluble on expression in E. coli” value was “not soluble”.
With “MNMTDDLGGNILLLSGHPGSGKSTIAEALANLPGVPKVHFHSDDLWGYIKHGRIDPWLPQSHQQNRMIMQIAADVAGRYAKEGYFVILDGVVRPDWLPAFTALARPLHYIVLRTTAAEAIERCLDRGGDSLSDPLVVADLHSQFADLGAFEHHVLPVSGKDTDQALQSAINALQSGRFRIDASLEHHHHHH” the “soluble on expression in E. coli” value was “soluble”.
With “GMTESDRDQEASMREVVIVKSTPQRGKFNAFAELVGKLVSETRDFPGCLGAYLMLAPERNEQVVMHIWETPDALEAYLTWRADRGDFLEINEYLEVEQDFKTYQLA” the “soluble on expression in E. coli” value was “soluble”.
With “SLRYIRQLCCVSLLCLSGSAVAANVRLQVEGLSGQLEKNVRAQLSTIESDEVTPDRRFRARVDDAIREGLKALGYYQPTIEFDLRPPPKKGRQVLIAKVTPGVPVLIGGTDVVLRGGARTDKDYLKLLDTRPAIGTVLNQGDYENFKKSLTSIALRKGYFDSEFTKAQLGIALGLHKAFWDIDYNSGERYRFGHVTFEGSQIRDEYLQNLVPFKEGDEYESKDLAELNRRLSATGWFNSVVVAPQFDKARETKVLPLTGVVSPRTENTIETGVGYSTDVGPRVKATWKKPWMNSYGHSLTTSTSISAPEQTLDFSYKMPLLKNPLEQYYLVQGGFKRTDLNDTESDSTTLVASRYWDLSSGWQRAINLRWSLDHFTQGEITNTTMLFYPGVMISRTRSRGGLMPTWGDSQRYSIDYSNTAWGSDVDFSVFQAQNVWIRTLYDRHRFVTRGTLGWIETGDFDKVPPDLRFFAGGDRSIRGYKYKSIAPKYANGDLKGASKLITGSLEYQYNVTGKWWGAVFVDSGEAVSDIRRSDFKTGTGVGVRWESPVGPIKLDFAVPVADKDEHGLQFYIGLGPEL” the “soluble on expression in E. coli” value was “soluble”.
For “GAMGSGDTQLFNRAVSMVEKNKDIRSLLQCDDGITGKERLKAYGELITNDKWTRNRPIVSTKKLDKEGRTHHYMRFHVESKKKIALVHLEAKESKQNYQPDFINMYVDVPGEKRYYLIKPKLHPVSN”, the “soluble on expression in E. coli” value was “soluble”.
With “MEFIGDTRIVIINPLGAKKICRLTFEQIKVIYQEVKTHFENYRIIFTGLPQDLLTIPILEIETLPFDEFIYTVALTKYSDFVISVDTALVHIAAAYHKPTLAFYPNSRTPEYPSHLIWSPNHHKSIQIVSPTYTVKDIDTETLTNSVKRLSCIDKKLEHHHHHH” the “soluble on expression in E. coli” value was “soluble”.
